Results as given in patent publication US20090098111.

Tests used:
[1] = test system: GST-XtopBP1 (1197-1513)
[2] = test system: GST-XtopBP1 (972-1279) ΔRQLQ
[3] = test system: GST-XtopBP1 (972-1279) ΔWDDP
[4] = test system: GST-XtopBP1 (972-1279)-W1138R
[5] = test system: GST-XtopBP1 (972-1279)
[6] = test system: His6-XtopBP1 (full-length)
[7] = test system: His6-XtopBP1-W1138R (full-length)
Chain of His6-XtopBP1-W1138R (full-length) (chain, as listed by the source W1138R): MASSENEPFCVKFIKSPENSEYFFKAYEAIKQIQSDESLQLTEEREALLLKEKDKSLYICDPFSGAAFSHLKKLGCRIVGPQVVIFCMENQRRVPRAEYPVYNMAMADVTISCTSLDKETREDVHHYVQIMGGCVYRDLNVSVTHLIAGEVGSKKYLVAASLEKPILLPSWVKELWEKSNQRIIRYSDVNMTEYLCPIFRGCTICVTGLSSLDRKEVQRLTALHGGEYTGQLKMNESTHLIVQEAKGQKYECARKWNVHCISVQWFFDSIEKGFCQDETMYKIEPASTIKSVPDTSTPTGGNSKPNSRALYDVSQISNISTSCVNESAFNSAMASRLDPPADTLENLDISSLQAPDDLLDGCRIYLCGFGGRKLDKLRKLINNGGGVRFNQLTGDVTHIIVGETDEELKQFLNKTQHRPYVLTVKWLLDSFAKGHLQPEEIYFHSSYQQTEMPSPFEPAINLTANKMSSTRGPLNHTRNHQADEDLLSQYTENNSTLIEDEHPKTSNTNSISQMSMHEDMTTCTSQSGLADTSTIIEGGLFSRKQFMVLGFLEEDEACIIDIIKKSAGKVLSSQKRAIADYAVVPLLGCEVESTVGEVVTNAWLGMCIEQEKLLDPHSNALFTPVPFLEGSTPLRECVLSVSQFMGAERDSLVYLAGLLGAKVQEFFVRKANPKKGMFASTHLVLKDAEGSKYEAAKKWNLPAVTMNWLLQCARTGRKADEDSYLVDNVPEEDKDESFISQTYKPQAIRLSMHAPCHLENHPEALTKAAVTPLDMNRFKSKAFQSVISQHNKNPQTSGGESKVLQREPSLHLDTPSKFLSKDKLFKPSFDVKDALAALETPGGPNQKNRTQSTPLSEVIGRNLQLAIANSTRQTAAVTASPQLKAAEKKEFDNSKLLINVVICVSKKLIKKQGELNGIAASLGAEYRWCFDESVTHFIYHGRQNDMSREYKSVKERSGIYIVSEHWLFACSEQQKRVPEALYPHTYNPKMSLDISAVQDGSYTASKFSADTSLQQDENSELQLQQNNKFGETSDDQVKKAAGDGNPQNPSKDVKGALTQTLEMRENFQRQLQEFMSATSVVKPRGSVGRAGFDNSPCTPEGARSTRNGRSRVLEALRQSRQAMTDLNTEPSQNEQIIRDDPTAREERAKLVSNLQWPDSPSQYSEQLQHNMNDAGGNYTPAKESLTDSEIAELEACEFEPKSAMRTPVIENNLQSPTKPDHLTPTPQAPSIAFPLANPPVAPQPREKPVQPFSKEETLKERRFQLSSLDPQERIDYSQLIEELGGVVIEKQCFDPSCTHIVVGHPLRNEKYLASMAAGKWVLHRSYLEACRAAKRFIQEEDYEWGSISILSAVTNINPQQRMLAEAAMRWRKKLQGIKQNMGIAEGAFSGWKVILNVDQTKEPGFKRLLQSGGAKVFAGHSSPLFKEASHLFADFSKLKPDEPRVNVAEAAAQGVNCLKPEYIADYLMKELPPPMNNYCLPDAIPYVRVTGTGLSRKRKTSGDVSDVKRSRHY

Chain of Xatr (endogenous Xenopus ATR in egg extracts) (chain, as listed by the source): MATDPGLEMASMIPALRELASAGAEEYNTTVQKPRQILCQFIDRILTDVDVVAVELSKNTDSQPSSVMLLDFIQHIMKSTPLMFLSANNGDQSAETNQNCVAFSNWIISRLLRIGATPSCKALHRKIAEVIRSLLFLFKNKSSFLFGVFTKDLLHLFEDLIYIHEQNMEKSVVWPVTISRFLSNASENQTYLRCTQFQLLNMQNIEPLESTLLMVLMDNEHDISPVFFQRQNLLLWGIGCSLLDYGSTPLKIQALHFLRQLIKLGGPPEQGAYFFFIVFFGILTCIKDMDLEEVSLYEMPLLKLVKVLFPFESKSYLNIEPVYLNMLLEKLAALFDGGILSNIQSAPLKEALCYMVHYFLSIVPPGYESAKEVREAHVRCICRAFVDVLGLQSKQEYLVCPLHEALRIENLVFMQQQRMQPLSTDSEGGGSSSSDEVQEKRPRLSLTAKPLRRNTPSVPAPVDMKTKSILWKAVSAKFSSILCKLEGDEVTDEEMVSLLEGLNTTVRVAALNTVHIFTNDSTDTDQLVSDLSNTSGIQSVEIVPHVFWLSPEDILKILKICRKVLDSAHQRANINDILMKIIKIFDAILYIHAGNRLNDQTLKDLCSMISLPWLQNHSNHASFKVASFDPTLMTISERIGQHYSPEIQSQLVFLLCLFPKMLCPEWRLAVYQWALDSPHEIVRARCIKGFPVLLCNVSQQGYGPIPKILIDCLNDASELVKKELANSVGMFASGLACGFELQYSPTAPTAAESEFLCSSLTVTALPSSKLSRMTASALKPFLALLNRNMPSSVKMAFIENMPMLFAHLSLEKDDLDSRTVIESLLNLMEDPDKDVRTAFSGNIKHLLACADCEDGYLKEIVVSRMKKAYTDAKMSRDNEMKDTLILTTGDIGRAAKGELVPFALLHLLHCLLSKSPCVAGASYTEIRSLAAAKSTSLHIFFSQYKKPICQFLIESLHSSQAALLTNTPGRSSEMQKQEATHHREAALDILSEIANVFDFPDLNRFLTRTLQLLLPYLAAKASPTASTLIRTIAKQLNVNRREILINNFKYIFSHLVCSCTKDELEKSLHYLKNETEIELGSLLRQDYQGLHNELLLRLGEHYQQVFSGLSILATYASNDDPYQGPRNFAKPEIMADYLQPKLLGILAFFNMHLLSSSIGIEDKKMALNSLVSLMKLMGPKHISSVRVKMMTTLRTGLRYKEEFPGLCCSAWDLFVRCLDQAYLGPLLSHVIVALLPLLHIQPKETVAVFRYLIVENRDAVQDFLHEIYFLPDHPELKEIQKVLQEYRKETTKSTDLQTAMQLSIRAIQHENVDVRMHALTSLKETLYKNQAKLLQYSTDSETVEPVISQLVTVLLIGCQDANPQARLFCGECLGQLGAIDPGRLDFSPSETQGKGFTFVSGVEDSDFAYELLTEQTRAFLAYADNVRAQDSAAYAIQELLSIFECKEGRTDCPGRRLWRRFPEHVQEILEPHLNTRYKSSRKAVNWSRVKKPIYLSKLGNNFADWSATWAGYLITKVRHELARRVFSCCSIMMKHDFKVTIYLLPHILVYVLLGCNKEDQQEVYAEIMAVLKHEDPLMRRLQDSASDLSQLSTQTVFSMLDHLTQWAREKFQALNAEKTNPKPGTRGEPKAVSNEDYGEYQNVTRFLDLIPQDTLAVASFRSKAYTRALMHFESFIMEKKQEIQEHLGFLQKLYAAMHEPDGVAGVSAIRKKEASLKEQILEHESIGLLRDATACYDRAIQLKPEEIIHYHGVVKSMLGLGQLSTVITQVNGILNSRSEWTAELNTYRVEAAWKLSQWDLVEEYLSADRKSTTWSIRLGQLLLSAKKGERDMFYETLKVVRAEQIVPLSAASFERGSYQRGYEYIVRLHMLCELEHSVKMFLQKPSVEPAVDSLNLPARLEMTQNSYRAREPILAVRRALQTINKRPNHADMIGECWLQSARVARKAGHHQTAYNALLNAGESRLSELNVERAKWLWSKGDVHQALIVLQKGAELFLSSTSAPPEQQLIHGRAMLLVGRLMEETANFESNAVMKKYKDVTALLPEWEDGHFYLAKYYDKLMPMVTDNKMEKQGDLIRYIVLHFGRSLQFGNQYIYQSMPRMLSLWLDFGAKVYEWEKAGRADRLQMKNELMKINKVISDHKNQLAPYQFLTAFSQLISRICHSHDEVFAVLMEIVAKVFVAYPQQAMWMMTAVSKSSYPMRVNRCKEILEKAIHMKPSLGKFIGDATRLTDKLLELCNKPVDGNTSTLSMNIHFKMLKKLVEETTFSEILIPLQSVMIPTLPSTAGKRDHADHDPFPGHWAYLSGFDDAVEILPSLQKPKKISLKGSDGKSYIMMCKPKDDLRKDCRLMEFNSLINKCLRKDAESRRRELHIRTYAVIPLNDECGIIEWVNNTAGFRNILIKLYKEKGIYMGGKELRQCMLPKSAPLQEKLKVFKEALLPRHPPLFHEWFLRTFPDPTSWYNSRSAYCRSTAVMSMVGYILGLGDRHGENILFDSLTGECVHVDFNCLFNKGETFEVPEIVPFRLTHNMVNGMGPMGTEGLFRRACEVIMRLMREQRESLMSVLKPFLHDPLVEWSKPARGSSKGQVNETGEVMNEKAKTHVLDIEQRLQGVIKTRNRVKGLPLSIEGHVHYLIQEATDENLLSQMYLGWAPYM
Chain of GST-XtopBP1 (972-1279)-W1138R (chain, as listed by the source W1138R): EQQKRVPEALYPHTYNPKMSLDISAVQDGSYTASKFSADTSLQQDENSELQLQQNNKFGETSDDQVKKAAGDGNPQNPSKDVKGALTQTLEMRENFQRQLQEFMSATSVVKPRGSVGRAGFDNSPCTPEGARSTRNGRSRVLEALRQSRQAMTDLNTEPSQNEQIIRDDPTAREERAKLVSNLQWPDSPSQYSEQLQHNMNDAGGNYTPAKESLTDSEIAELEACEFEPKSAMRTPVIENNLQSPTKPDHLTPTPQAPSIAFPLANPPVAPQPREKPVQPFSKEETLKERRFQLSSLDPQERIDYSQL
Chain of GST-XtopBP1 (1197-1513) (chain, as listed by the source): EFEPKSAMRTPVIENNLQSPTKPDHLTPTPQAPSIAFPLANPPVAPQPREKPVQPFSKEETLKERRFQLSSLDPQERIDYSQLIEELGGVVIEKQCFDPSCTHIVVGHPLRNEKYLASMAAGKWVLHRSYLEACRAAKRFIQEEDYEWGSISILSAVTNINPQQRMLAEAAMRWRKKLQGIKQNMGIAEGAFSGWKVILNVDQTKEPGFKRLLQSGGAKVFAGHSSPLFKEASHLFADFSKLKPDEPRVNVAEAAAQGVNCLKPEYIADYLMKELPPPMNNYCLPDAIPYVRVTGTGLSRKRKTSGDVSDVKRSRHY
Chain of GST-XtopBP1 (972-1279) (chain, as listed by the source): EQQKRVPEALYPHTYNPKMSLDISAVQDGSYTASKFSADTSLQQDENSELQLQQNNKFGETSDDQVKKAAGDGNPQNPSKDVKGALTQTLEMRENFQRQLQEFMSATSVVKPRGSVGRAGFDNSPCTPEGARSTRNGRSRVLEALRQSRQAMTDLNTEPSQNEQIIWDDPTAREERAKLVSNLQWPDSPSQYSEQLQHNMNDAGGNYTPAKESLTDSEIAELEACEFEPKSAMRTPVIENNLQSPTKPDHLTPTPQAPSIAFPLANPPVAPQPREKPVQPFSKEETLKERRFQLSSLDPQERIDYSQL

Xatr (endogenous Xenopus ATR in egg extracts)
phosphorylation of 35S-Xchk1 in egg extracts (electrophoretic mobility) [1]: the GST-XtopBP1 (1197-1513) fragment, which does not activate Xatr, did not induce any phosphorylation of Xchk1 in egg extracts
phosphorylation of 35S-Xchk1 in egg extracts (electrophoretic mobility) [2]: none of the ΔRQLQ, ΔWDDP, or W1138R mutants of the 972-1279 fragment could induce ectopic activation of Xchk1 in these extracts
phosphorylation of 35S-Xchk1 in egg extracts (electrophoretic mobility) [3]: none of the ΔRQLQ, ΔWDDP, or W1138R mutants of the 972-1279 fragment could induce ectopic activation of Xchk1 in these extracts
phosphorylation of 35S-Xchk1 in egg extracts (electrophoretic mobility) [4]: none of the ΔRQLQ, ΔWDDP, or W1138R mutants of the 972-1279 fragment could induce ectopic activation of Xchk1 in these extracts
phosphorylation of 35S-Xchk1 in egg extracts (electrophoretic mobility) [5]: the 972-1279 fragment could elicit a very robust phosphorylation of Xchk1
checkpoint-dependent phosphorylation of Xchk1 in XtopBP1-depleted egg extracts with aphidicolin [6]: addition of wild-type His6-XtopBP1 to the XtopBP1-depleted extract was able to rescue the phosphorylation of Xchk1 fully
checkpoint-dependent phosphorylation of Xchk1 in XtopBP1-depleted egg extracts with aphidicolin [7]: the W1138R mutant could not restore the phosphorylation of Xchk1
